Laboratory results as given in publication PMC8339232.

Target: PknF catalytic domain (cPknF) catalytic domain, 1-299 (UniProt P9WI75)
Conditions: reference: non-phosphorylated cPknF; sites T173,T175

## PknF catalytic domain (cPknF) catalytic domain, 1-299 (from UniProt P9WI75)
  other: volume fraction of dimers: stronger; reference 44
